Test results reported in the DeepSol protein solubility set.

test: soluble on expression in E. coli; label from the status in PepcDB or PDB records

Row | Sequence | soluble on expression in E. coli
1 | MRIQIRYDDIDYLGHVNNARFLAYFEIGRLSYMKRFFNTRSAKDISMVIARAELDFERSVMFEDDIFVRTWISRVGNRSFDFSYTIEDDGGTVFCRGRTVNVFVEDGKPVSVPDFVKDLVISDVKT | not soluble
2 | MRITDLLSKDVMIMSLQATTKEAAIDEMIASLKSNGKINDEVLFKEAIMNREAQSSTGVGEGIAMPHAKTKAVNEPTVVFAKSEKGLDYNSLDGQPAHLFFMIAAPDGANATHLETLAALSRLLVHPAFVQSLKDAKTPDDVITLFNNEQGDAEE | not soluble
3 | MRKAERVRKTNETDIELAFTIDGGGQADIKTDVPFMTHMLDLFTKHGQFDLSINAKGDVDIDDHHTTEDIGICLGQALLEALGDKKGIKRYGSAFVPMDEALAQVVIDLSNRPHLEMRADFPAAKVGTFDTELVHEFLWKLALEARMNLHVIVHYGTNTHHMIEAVFKALGRALDEATTIDPRVKGIPSTKGMLLEHHHHHH | not soluble
4 | MRKLSTRPLPLGDGFFDSSSDSSESELSDKDDEDRYSDSTVSTLTSQDRRDTQGCQYPRSSELPISESPAPRARRARKQRSKRKSVKPPNTSSDDSSDDSDDSSSSSSSDDSVSSKSSTNSSDSSPCRCRDGLAEWEQRHGRRWHPYGRNGTWEPYRNRRRGIYDCENSPRETYSNGA | not soluble
5 | MRKLTAMLVASSLALGAAGLAHANEAPKGPGSEHKMMMKEGREHRGMMGSDAMFKELNLTEAQKQQIKDIMKDSREKMHKAMQDDRRDMHSLVASDTFDAAKAQAQLDKADAAHKARMLSGLETKNKIYNVLTPEQKKQYNDSFEKRLTQPPKPDGKPVPAELEHHHHHH | soluble
6 | MRKMKKMDADTLTAILAFQRLSGTGKSLLEGAAKDAEAGRYSIIAINPVHEIKVYQHDYYIDGTHQVVADPLKEIELFIEKAREDELELPLDSGAIGYVGYDVIALYEDLGEIPVETRDIPDIRFYVYESFVIMDHQAEELILVQDNCYSGRSEADLDKALESMLTELTTPKKDEHKAVHVPKMSYKSNYTKDEYMGLVKKAKTYIQEGDFFQIVLSQRLEADFTVKPFDYYRKLRLLNPSPYLYFIDFGDTVLIGSSPESLIKTKGRTVITNPIAGTRRRGATKQEDELLASELLSDEKELAEHRMLVDLGRNDIGKIAETGSVHVPVYLTIERYRFLMHLVSVVEGTLKTGLTAIDALRSTLPAGTVSGAPKIRAMERIYEWENVKRGPYAGAVGYLTKNGDSDFALSIRTMVLHNGKAYVQAGAGIVYDSDPESEYLETLQKAKALLEVGE | not soluble
7 | MRKRLITVKNLFEYVQENELVIQADMIITPGAKDIIRDKGIGVKYEKCCCESESKMKNEIKKDCQNFEKKVIDIITKEFKITDSETVQKILSKLKELL | not soluble
8 | MRKVTLMDVFTHPIAQKYLQRSGVAHAIACAYHAYRLSVKADINPDLAAKAALLHDIGHYEWYTDGKWDYEKYKRNDIHAIKGAERAHKLLIRLGEEPKAAKEIALAILLHTDSYLPEGELDKNTLQQIVKKADELDEEPGGHHHYRQIDPSTARKKIEKLDQLIDQAQASVIKPV | not soluble
9 | MRLFILLSCLLAWVLAAPYIDQEDALRVLNAYLEQFGPGSDRVYYVAEDDHGSMKRGLGPRPLRFG | not soluble
10 | MRLIPLGAAALAGALALAPAARAEMSAAEREAVRAEVRAYLLENPEVLMEAFTALEQRQQLDQVNADLARLQDHSSEIYTDPASWAGGNLQGDITVVEFIDYRCGYCRKANAEVEELVASDGNIRFVLKEYPILGEESVLASRFAISVLQIAGPEPYKAVHDKLITFRGDITTEALGRLADEMKLDRAAILAHMDKDEVTAVIAANHKLAETLEISGTPTFVVDRTMVRGYVPLDGMRQIVEGQRKG | not soluble
11 | MRLLVTGGAGFIGSHFVRQLLAGAYPDVPADEVIVLDSLTYAGNRANLAPVDADPRLRFVHGDIRDAGLLARELRGVDAIVHFAAESHVDRSIAGASVFTETNVQGTQTLLQCAVDAGVGRVVHVSTNQVYGSIDSGSWTESSPLEPNSPYAASKAGSDLVARAYHRTYGLDVRITRCCNNYGPYQHPEKLIPLFVTNLLDGGTLPLYGDGANVREWVHTDDHCRGIALVLAGGRAGEIYHIGGGLELTNRELTGILLDSLGADWSSVRKVADRKGHDLRYSLDGGKIERELGYRPQVSFADGLARTVRWYRENRGWWEPLKATAPQLPATAVEVSA | soluble
12 | MRLNIVVVGVGGQGALTTSGIIARAAMRAGLNVVTAETHGMAQRGGSVEVHVRIGDVRAPLIPEGGADVMIALEPAEALRYAKFLNKNTLVILNTRKIIPPSVTAGTAKYPELDEIIGELRKVTPRVIPVNASEIAEKAGSVLATNVVVVGMLFGYYSMPFGIEHVEEAIRETMKSKIVDLNLKALKMGYNQAI | not soluble
13 | MRLRNKPWAKDKIAAYPQYVIPDPETKRGRWRELFGRDRPIHVEIGTGKGKFITEMAKLHPDVNFIGIELYPSVLVSALDKLIESGLANVKLLNANAKDLTAFFADGEVSRIYLNFSDPWPKKRHEKRRLTYRDFLALYDRILAEDGDIHLKTDNQSFFEYSLVSLSQYGFVLASVQLDLHQSGMTDNVMTEYEEKFSSKGNRIYPMRGGAPAAAVVIGPNRLVGSFSISD | not soluble
14 | MRLTKLAATIGCVTLSGLALVACSSDSTAGTDAVAVGGTFQFHSPDGKMEIFYDEADRQQLPDIGGDSLMEEGTQINLSDFENQVVILNAWGQWCAPCRSESDDLQIIHEELQAAGNGDTPGGTVLGINVRDYSRDIAQDFVTDNGLDYPSIYDPPFMTAASLGGVPASVIPTTIVLDKQHRPAAVFLREVTSKDVLDVALPLVDEA | not soluble
15 | MRLYRDRAVVLRQHKLGEADRIVTLLTRDHGLVRAVAKGVRRTRSKFGARLEPFAHIEVQLHPGRNLDIVTQVVSVDAFATDIVADYGRYTCGCAILETAERLAGEERAPAPALHRLTVGALRAVADGQRPRDLLLDAYLLRAMGIAGWAPALTECARCATPGPHRAFHIATGGSVCAHCRPAGSTTPPLGVVDLMSALYDGDWEAAEAAPQSARSHVSGLVAAHLQWHLERQLKTLPLVERFYQADRSVAERRAALIGQDIAGG | not soluble
16 | MRMRHKPWADDFLAENADIAISNPADYKGKWNTVFGNDNPIHIEVGTGKGQFISGMAKQNPDINYIGIELFKSVIVTAVQKVKDSEAQNVKLLNIDADTLTDVFEPGEVKRVYLNFSDPWPKKRHEKRRLTYSHFLKKYEEVMGKGGSIHFKTDNRGLFEYSLKSFSEYGLLLTYVSLDLHNSNLEGNIMTEYEEKFSALGQPIYRAEVEWRTLEHHHHHH | not soluble
17 | MRMRLMLLGGGNALGQALIRLGAEEDIGFLAPRPPEQGWDAASLTTLLDETRPDAVINLAFYHDWFQAEQVEAERLGAQERAVERLAELCQHYEILLVQPSSYRVFDGARATAYSEKDETLPLGLRGQALWRMEQSVRAACPRHVLIRFGWLLDESPNGLLGRFLSRAEQPQPLFLADDRRGNPTPVDDAARVVLSVLKQLDCQAPLWGTYHYGGLEATTTLALGQVILNEARTYRSNLIQEPSAEAHAARPDALDEPQHAVMVCKKILHTFGIKPRAWRAGLPALLDRYYRHV | not soluble
18 | MRNIMAGFLIFLSSAAYADINLYGPGGPHTALLDAAKLYAEKTGIIVNVHYGPQNKWNEDAKKNADILFGASEQSALAIIRDHKDSFSEKDIQPLYLRKSILLVKKGNPKNIRSIDDLTRPGIGVIVNDGGGTSNTSGTGVWEDIAGRKGNIETVAAIRKNIILYAPNSGTARKALENQPGADVWITWADWAASNPEIGDVVEIAPDYVIWRDMNITVRQDANDETRRFAEWLQTDEAAPAFKKYGWTRKGT | not soluble
19 | MRNMKSTSHESESGKLLSISSCRPREMVLQRYSLGMTVTADRHLADKREEFAVEDISTGIFASGYGQVGDGRSFSFHIEHRSLVVEIYRPRVAGPVPQAEDVVAMAVRGLVDIDLTDERSLAAAVRDSVASAAPVSR | not soluble
20 | MRNNPLIPKSKLPNLGTTIFTQMSALAQKHQAINLSQGFPDFDGPRYLHERLAYHVAQGANQYAPMTGAQALREAIADKTAEIYGYRPDDVSDITVTAGATEALYAAITALVRAGDEVICFDPSYDSYAPAVALSGGVLKRIALTPPHFRVDWQAFSALLSERTRLVILNTPHNPTATVWRQADIEALWQAIGEREIYVLSDEVYEHICFAAEGHASVLAHPQLRERAVAVSSFGKTFHMTGWKIGYCVAPAAISAEIRKVHQYLTFCVNTPAQLALADMLRAAPEHYRALPDFYRKKRDVLVNALAQSRLKVLPCEGTYFLLIDYSAVSTLNDVEFCQWLTEEVGVAAIPLSVFCAAPFPHQLIRLCFAKQESTLLAAAERLCKL | not soluble
21 | MRNNQPVTQKEVTYPPHFNLLSTTTLSSHIKYASKEFCDVAGYTLDELVNQPHNMVRHPDMPPEAFKDMWEHLKAGKSWMGMVKNRCKNGDHYWVDAFASPIKENGK | not soluble
22 | MRNVMKATTLESKFPLLAVENGCIVSKEADVTVAFRVELPELFSVTGSEYEAVHSAWHKAVKVLPEYSIVHKQDFFIEEKYRPETDRDDLSFLSRSFERHFNERPFLNHFCYLFLTKTTKARSRQESTFSTLCKGRLVPKEIEDRETVTRFLEAVGQFEKIMNDSGFVTLRRLTTDEITGTETAAGIVEKYLSLSQHDTTVLKDIQLNPEEMRIGDDILCLHTLSDTEDLPGKVATDSRYERLSTDRSDCRLSFAAPVGLLLDCNHCYNQYIFIDDHGENLKRFEQTARNMHSLSRYSRSNQINKAWIEEYLNEAHSKGLTSVRCHCNVMAWSDDREELRRIKNEVGSQLALMECKPRHNTVDVPTLFWAAIPGNEGDFPFEESFYTFIPQALCFFTEETNYKDSLSPFGIKMADRMTGRPLHLDISDLPMKKGVISNRNKFVLGPSGSGKSFFMNHLVRQYYEQNSHIVLIDTGNSYQGLCELIHRKTKGEDGIYYTYTEEKPISFNPFFTDDYKFSVEKKDSIKTLLLALWKGEDEKVTKTESGELGSAVSAYIRRIQQNRDIAPSFDTFYEYMLNDYRKELAARDIKVSREDFNIDNFLTTLRQYYKGGRYDFLLNSNENIDLLHKRFIVFEIDAVKDNAELFPVVTIIIMEAFINKLRRLKGVRKMLICEEAWKALSSPSMSEYLKYLYKTVRKYFGEAIVVTQEVDDIISSPIVKEAIITNSDCKILLDQKKYMNKFDGIQSMLGLTDKEKSQILSINLANHPGRKYKEVWIGLNGVQSAVYATEVSAAEYLTYTTEESEKTEVFALAEELGGDLELAIKRLAETKYK | not soluble
23 | MRPLDENLRTSAASRPAQSLSVRGQPEAESGAFGEAIADAGRRRTQGQGGQTSADDARRDSVANGGNASAVPKADGFGADVPASTADAASPDARPAYERAIITRDQAAKRLQHSHPAGTRHLSQGREDGGEEIAQPAERAVVRSRETVQTSRDSVDEASGVTAREGGENGDPASGTVSDLLSMLTGAAPAVAAASQPEGRAKPASAVRDGSDGPAKAVGGISPAVPDGEHPQTGEGTGGSEPDRLFRFARADGKGQAVSMNISRDGERAVVENSRSSVKPGVETVTVLEARRYLGLAVNENATSVTTAIAGDSGWAEALQSSAATTKPEAWSQAGKTLNTLKIQMHPVDLGMVTATLRLKDDELQVDLKVETGEAFRQLRDDQSEMVKALRAQGFAVDQVNIVFNGGGDSASGGGGQSQAQAQLGYEGRERAGDDGQGRQPRDGGRAATERWAGNDATDDVPDGAERSRAGHVYM | not soluble
24 | MRPPISSGRIGDGGLDSCPEKKEEEKDSTSRLCSDLSDLRIERIGSTPAFQWISVYTKRPPMKQRFHHNIANSRLSHHAEKGKRDGLFISCVASEANLWALVMDAGTGFTSQVYKFSSTFLPKDWIMKQWEKNYYISSIAGANNGSSLVVMSKGTRYIQQSYKTGDSIPLKWMDKKWKEGFHVTSMTTGGSRWGVVMSRNSGFSEQVMEVDFLNPSEDINRRLESGYMITSMAATADQAALILSIPRRKITDEIQETLRTSSFPSSYVKDKWGKNMFITSICYGRTV | soluble
